# Target: mouse low affinity IgE receptor FcεRII (mouse) (UniProt P20693)
# Experiment: FACS analysis of 0.12A3 cells with the B3B4 antibody
# Sequence of UniProt P20693 (P20693 whole entry): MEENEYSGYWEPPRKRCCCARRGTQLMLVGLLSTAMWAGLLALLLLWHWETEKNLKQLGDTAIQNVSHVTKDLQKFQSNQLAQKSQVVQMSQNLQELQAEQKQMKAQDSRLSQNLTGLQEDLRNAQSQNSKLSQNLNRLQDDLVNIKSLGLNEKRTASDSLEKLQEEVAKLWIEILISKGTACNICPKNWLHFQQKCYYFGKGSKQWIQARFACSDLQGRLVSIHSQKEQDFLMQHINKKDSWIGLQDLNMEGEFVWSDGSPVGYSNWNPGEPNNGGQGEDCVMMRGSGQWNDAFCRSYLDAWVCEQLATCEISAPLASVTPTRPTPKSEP
substance,measurement,value
B3B4 antibody against the FcεRII receptor (Pharmigin),percent of cells on which the receptor was expressed,54%

# From US7740853
